For the data set, the target named is T1, alpha-fetoprotein (AFP) (UniProt P02771 19-609).
T1 sequence: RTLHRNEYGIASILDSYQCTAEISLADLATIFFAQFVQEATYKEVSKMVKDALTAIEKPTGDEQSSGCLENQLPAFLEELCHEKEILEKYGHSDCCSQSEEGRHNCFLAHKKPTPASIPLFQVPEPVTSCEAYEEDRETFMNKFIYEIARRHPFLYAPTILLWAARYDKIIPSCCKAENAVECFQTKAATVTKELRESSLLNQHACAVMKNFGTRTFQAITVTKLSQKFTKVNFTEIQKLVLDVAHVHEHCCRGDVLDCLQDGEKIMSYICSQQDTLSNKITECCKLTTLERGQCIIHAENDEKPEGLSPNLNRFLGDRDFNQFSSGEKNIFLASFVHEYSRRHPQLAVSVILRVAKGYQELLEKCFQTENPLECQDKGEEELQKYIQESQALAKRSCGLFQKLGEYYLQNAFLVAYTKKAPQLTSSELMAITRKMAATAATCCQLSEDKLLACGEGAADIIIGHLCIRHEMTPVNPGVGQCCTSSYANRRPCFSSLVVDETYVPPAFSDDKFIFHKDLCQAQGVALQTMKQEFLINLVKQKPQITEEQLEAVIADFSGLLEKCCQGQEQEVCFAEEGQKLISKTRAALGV
Kind of data set: electrochemical sandwich assay (DPV, methylene blue read-out); AFP 50 ng/ml captured by anti-AFP; aptamer 10 uM; MB 10 mM; DPV in 0.010 M PBS pH 7.4 (performance section prints 0.0010 M); aptamer 10 uM, 40 min; temperature not given. The settings on record: protein: commercial.

B1: AFP aptamer (ssDNA)
DNA: GTGACGCTCCTAACGCTGACTCAGGTGCAGTTCTCGACTCGGTCTT
For the molecule B1, the binding result is “binds”.

Source of the values: article PMC9646986, “A sandwich-like configuration with a signal amplification strategy using a methylene blue/aptamer complex on a heterojunction 2D MoSe2/2D WSe2 electrode: Toward a portable and sensitive electrochemica”.
